Measured values taken from patent publication US20020142982.

Experiments:
[1] = molecular target: R233K EDG-1 mutant receptor (UniProt P21453)
[2] = molecular target: Flag-tagged wild-type EDG-1 receptor (UniProt P21453)
[3] = molecular target: T236A EDG-1 mutant receptor (UniProt P21453)
[4] = molecular target: R231K EDG-1 mutant receptor (UniProt P21453)
[5] = tested on: GST-i3 polypeptide from EDG-5 [GST: P08515]
[6] = molecular target: GST-i3T236V polypeptide (UniProt P21453)
[7] = molecular target: GST-i3 polypeptide from EDG-3 (UniProt Q99500)
[8] = molecular target: glutathione S-transferase (GST)-EDG-1-i3 (UniProt P21453)
glutathione S-transferase (GST)-EDG-1-i3, sequence (P21453 other isoform, or with tags, fused parts or gaps): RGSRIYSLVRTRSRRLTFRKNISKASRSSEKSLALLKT

T236A EDG-1 mutant receptor, sequence (P21453 whole entry T236A): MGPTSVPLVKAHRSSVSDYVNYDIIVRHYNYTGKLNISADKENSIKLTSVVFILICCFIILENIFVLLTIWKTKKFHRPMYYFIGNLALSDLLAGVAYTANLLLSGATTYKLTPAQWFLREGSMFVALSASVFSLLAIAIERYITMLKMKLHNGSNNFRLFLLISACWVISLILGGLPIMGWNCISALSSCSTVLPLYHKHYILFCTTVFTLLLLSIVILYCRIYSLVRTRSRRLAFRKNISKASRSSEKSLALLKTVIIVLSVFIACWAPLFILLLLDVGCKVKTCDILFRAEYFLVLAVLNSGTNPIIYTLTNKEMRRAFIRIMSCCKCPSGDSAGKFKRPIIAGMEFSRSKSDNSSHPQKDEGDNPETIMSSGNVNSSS
R231K EDG-1 mutant receptor, sequence (P21453 whole entry R231K): as the sequence (P21453 whole entry T236A) above, with R231K, A236T counted along it
Flag-tagged wild-type EDG-1 receptor, sequence (P21453 whole entry): as the sequence (P21453 whole entry T236A) above, with A236T counted along it
R233K EDG-1 mutant receptor, sequence (P21453 whole entry R233K): as the sequence (P21453 whole entry T236A) above, with R233K, A236T counted along it
GST-i3 polypeptide from EDG-5 [GST: P08515], sequence (P08515 whole entry, looked up): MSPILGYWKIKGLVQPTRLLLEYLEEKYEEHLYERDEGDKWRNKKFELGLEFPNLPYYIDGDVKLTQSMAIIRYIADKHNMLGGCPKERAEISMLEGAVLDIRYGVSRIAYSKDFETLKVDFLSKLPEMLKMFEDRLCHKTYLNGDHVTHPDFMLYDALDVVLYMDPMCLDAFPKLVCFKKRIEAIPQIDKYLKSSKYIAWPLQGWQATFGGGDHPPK
GST-i3 polypeptide from EDG-3, sequence (Q99500 217-243): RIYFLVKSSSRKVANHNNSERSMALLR
GST-i3T236V polypeptide, sequence (P21453 whole entry T236V, looked up, tested part not stated): as the sequence (P21453 whole entry T236A) above, with A236V counted along it

Substance	in vitro phosphorylation of immunoprecipitated receptor [1]	in vitro phosphorylation of immunoprecipitated receptor [2]	in vitro phosphorylation of immunoprecipitated receptor [3]	in vitro phosphorylation of immunoprecipitated receptor [4]	in vitro phosphorylation (32P incorporation, SDS-PAGE) [5]	in vitro phosphorylation (32P-phosphate incorporation) [6]	in vitro phosphorylation (32P incorporation, SDS-PAGE) [7]	in vitro phosphorylation (32P incorporation, SDS-PAGE) [8]
p90^RSK (active kinase)	in vitro phosphorylation with p90^RSK was similar in wild-type as well as in the three mutants	in vitro phosphorylation with p90^RSK was similar in wild-type as well as in the three mutants	in vitro phosphorylation with p90^RSK was similar in wild-type as well as in the three mutants	in vitro phosphorylation with p90^RSK was similar in wild-type as well as in the three mutants				
recombinant, active Akt	All three mutants were phosphorylated very poorly by the active Akt kinase in an in vitro phosphorylation reaction when compared to the wild-type EDG-1	All three mutants were phosphorylated very poorly by the active Akt kinase in an in vitro phosphorylation reaction when compared to the wild-type EDG-1	All three mutants were phosphorylated very poorly by the active Akt kinase in an in vitro phosphorylation reaction when compared to the wild-type EDG-1	All three mutants were phosphorylated very poorly by the active Akt kinase in an in vitro phosphorylation reaction when compared to the wild-type EDG-1	only the GST-EDG-1-i3 was phosphorylated by Akt	^32P-phosphate incorporation into the GST-i3T236V polypeptide was significantly reduced upon incubation with Akt	only the GST-EDG-1-i3 was phosphorylated by Akt	only the GST-EDG-1-i3 was phosphorylated by Akt
